# Experiment: soluble on expression in E. coli; label from the status in PepcDB or PDB records
row,Sequence,soluble on expression in E. coli
1,MSLSDNRSHIEEKYQWDLTSIFPNDQTWEKEEKSLAKDLEIAVKRAGHLLDSSQSLLEITELYLALSRRLEKLYVYASMKNDQDTTVSYYQELQAKATALIAKFNQTFAFYEPEFMLLSTEKYQDFLADCPDLLPYQHFFEKLFKQKKHVLSQKEEALLAEASEIFGAAGETFEILDNADIIFPWVKDETGEEVELSHGNFISLMESKNRKVRQEAYKAMYSIYEQYQHTYAKTLQTNVKVNNFQAKIRNYKSAREAALAANFIPETVYDTLVEAVHNHLPLLQRYVKLRQNVLGLDDLKMYDIYVPLSEMDMTFTYEAALDKAEEVLAIFGRDYAERVHRAFRERWIDVRVNKGKRSGAYSGGSYDTNAFILLNWQDTLDNLFTLVHETGHSLHSTFTRENQPYVYGDYSIFLAEIASTTNENILTETLLKEATDEKQRFAILNHYLDGFKGTVFRQTQFAEFEDLIYKADQAGDVLTSDYLNNLYADLNEKYYGLSKENNPEIQYEWARIPHFYYNFYVYQYATGFAAASFLAHKIVHGNQEDKDKYLNYLKAGNSDYPLNVIAKAGLDMTESTYLDQAFKVFEERLIELEELVEKGIDEGHHHHHH,soluble
2,MPRRNPLWLRLPGSSSPSSSSTTEELRLAALSPYSPNDDISSIPDSLEHSPAKTSDDGSEISRANFSSPSSPSRSPSKKVSWSLFDQVSLSGEEFLLPRRFEAIELNAGTSTRSTSISCSATDLLESDHVTIRKISLQDPATARREYRNIILCRLLPHPNILPISEAYEVDSTLYTVSEQMDGRLSDIVEERLTHFVVAKISHQILAAVAMMHQNGIAHGDLTLSTIYVNTDAELRLSSYGKSDDSSEHLDERYRDDLLSIGAIVSRFLMNEEEMFKFSKSRNLKDIDWRVVLEGSSDSGLLDFNARSLLFQLLEGRQSARDLLRHPYFKSFRAPQHQTVERKHTVVGQKTSDEVLDKLREELQRFNPFNMSEIML,not soluble
3,MSRRRHSDENDGGQPHKRRKTSDANETEDHLESLICKVGEKSACSLESNLEGLAGVLEADLPNYKSKILRLLCTVARLLPEKLTIYTTLVGLLNARNYNFGGEFVEAMIRQLKESLKANNYNEAVYLVRFLSDLVNCHVIAAPSMVAMFENFVSVTQEEDVPQVRRDWYVYAFLSSLPWVGKELYEKKDAEMDRIFANTESYLKRRQKTHVPMLQVWTADKPHPQEEYLDCLWAQIQKLKKDRWQERHILRPYLAFDSILCEALQHNLPPFTPPPHTEDSVYPMPRVIFRMFDYTDDPEGPVMPGSHSVERFVIEENLHCIIKSHWKERKTCAAQLVSYPGKNKIPLNYHIVEVIFAELFQLPAPPHIDVMYTTLLIELCKLQPGSLPQVLAQATEMLYMRLDTMNTTCVDRFINWFSHHLSNFQFRWSWEDWSDCLSQDPESPKPKFVREVLEKCMRLSYHQRILDIVPPTFSALCPANPTCIYKYGDESSNSLPGHSVALCLAVAFKSKATNDEIFSILKDVPNPNQDDDDDEGFSFNPLKIEVFVQTLLHLAAKSFSHSFSALAKFHEVFKTLAESDEGKLHVLRVMFEVWRNHPQMIAVLVDKMIRTQIVDCAAVANWIFSSELSRDFTRLFVWEILHSTIRKMNKHVLKIQKELEEAKEKLARQHKRRSDDDDRSSDRKDGVLEEQIERLQEKVESAQSEQKNLFLVIFQRFIMILTEHLVRCETDGTSVLTPWYKNCIERLQQIFLQHHQIIQQYMVTLENLLFTAELDPHILAVFQQFCALQA,soluble
4,GPGSMKKELRVGVLISGRGSNLEALAKAFSTEESSVVISCVISNNAEARGLLIAQSYGIPTFVVKRKPLDIEHISTVLREHDVDLVCLAGFMSILPEKFVTDWHHKIINIHPSLLPSFKGLNAQEQAYKAGVKIAGCTLHYVYQELDAGPIIMQAAVPVLREDTAESLASRILAAEHVCYPKGVKLIAQDKIKLCDDGTVQCTGEDELFLFQENF,soluble
5,MGSDKIHHHHHHMVGENMDIFVSDYEKQYKEILTGFDPTTFSETWVENQQWQLDFYVEKTRNNQDVFDLLNHESSVYLDGQEFVVKQLKRGAVGKIVYSEVTATHIYFTMQDDYQYNAISGSKSAKDCLTHIFAADKQGFSFELIDKNKVLENITQENFGNGNLLKLVQEVLEDYKLVMLADNKRLTFIPSEDYGEHTENEIRYNKHTNEVDFDIDTLSLRTQIKGYGKVDSNGNNYFPPVTFTSPESAKWGVRIQEPLSDERYTTSSSMLRRLKLELQDYPATTGNISLKLKYECGKGDYVMFVYEPLGLLYEVQIVAYKKYIFTNKPPELTLSNNKKTMVSIMVQLAKAIKRGAK,not soluble
6,MSLAKALSLMLAQLNLTVGAIEDNCDKVLAAAAEADRQGADLLVCSELALTGYPPEDLLLRVDLMIRVEAALARLAAWQGACAILVGHPWRDGEALYNAASLYEQGKLVARYFKQDLPNYGVFDEKRYFTAATETCVVPFRGHQLGLLICEDLWQPGPALAAKAAGAELLLTINASPYDQEKPWIRRELMAERCDQTGLPLVYLNQVCGQDELIFDGCSKVFNSQGELTHKLAPFAEELALVRFADGQPVKEREPAAPLEPLAETYQALVLAVRDYVTKNGFHGAVLGLSGGIDSALTLAIAADAIGADKVQAVMMPFRYTAQMSVEDAKEQAERMGVEFNIISIEPMFEGFMAQLAPLFEGTARDTTEENLQARCRGVLLMALSNKRRCIVLTTGNKSEMAVGYATLYGDMAGGFDVLKDVPKTLVFKLCEYRNSVDYVIPQRVIDRPPSAELAPDQVDQDSLPPYDILDAILKRYVEEDASVADMVAEGFEEAVVRKVIRLVDLNEYKRRQAAVGPRITARNFGKDRRYPITSGFGKQNWEGHHHHHH,soluble
7,MGSDKIHHHHHHMSKGRHVCFLTGTLNAMAGAERMTAVIANALAESGHTVSILSLWDKDSCFPLHPAVGHEALFAERPSFKKAYLTTVAGIRRYCRERKVDVLVQVDTMLALLALPATVGLGVQHIAWEHCHFDEDLGRRARRYARRLAARYCKHVVVLTERDQLRWIEALQPRSQVVIIPNPLPFPFPEEPAPRTGKIVLAMGRLVNAKGFDVLIRAWQRVSAEVPDWKLVIHGEGEERPALSALIDELGLQDSVSLPGICRDATEAYREASIFCLSSRYEGFGLVLIEAMAFGLPIVSTNCEAGPRELLATGTVGLTVPVDAPTMLAASILDLIHQPDLALRFAHAERMFAKGYSLQQIGARWSDLTSARHGSMPQYS,not soluble
8,MFSVFEWILIFFGILNWFKFTQPSTPEPASRFFTRVCQQLRETVLIEIDSSGRVQPFVSIVEEGSKPYFSPHVGCAECMQWWDVYGEQPHRVEETEDQDTDEGVEEESEIEDSDFDDQITFVKPTTPAPLSPETENFIEDKMKFHFQATDIINEYLGKGTDMGIVSNLIRISQTYGVQLKQVSSGKSSMKEIEGILKSLQKEFEQEIEGLNGEISEAEENNESDIDESFEFVENLELDSDFE,not soluble
9,MKATGFMGPCYAKAMATRYRFGLEEYERLFRGIRDVELLAGEVYRMSPIGPKHAWSVARLNRLFTEALGDRAVVWPQNPIRIPPHSEPQPDLALLRPKSYGEGLPTPEDVLLLVEVAETSLEHDQGLKLSLYAQAGIPEVWVLDLKENRLHVYRTPKAGVYTEHRILLPGEEAEPLAFPGVRIPWS,soluble
10,MRVMAFVQARMGSTRLPGKSLMPVWNGMGVLEMTLRRALRARTLSGVVLCTSTDPACDALETLASGLGVQAFRGPEDDVLTRYALATERFEPDAVVRICADSPLVCPEGIDALVAFFRDEGLDYAAHAMDGTGLPDGLGCEVFTAAALAQAHAEATAPEDREHVSLFIRHRPERFRQATLAADAALRAPGVSLDVDTQDDLDALRRFIMALPPSEGPFWSADAIAPLARGLHTPPQGTSMDIASDDYHDFFIRDGKLIGEFEQMYRKSRHAPWHQDEACDKWFNKVSAALVGHALDDPSVRTVFEVGSGLGYFLSQFAGEGRTLTGTDVSATAVEKARALFPGISFEVDDIRFEGRRGPYDLCLMQAVCWCIFPHMDDVVRNVTATVRPGGYLFLGECFQPLDGPFAGKDVIPTPDALIGHFSHAFDTVADVRVTRGEMGGGPIIYWLGRRRGLEHHHHHH,soluble
11,MPTYKLTYFNSRFYAEPARILFHLAGVPFEDIRIIHGDGTWEQIKDKTPFGQVPVLNINGFEIPQSTAIIRYLATKFGYAGKTPEEQAWADAICDQVRDFMAVPFKDIVVAKRVGKTEEEVSQLINEGFVPGRDAYFKIITRILEKNKSGFLVGDGITFADIVVVENLTTLQKNQLFEASKYPELAALREKVYAIPAIKKWVEARPDTQY,not soluble
12,MSLGEGFPSFEEMVEKELEGYSGFRFLDRGIYAKQLEQWFRFFPKKQFLILKSENFFEDPAKEFRKVICFLNLPVWELPEYANVNWKVLARSKRVERYQKINKETRERLLYYFKPFNDQLYALINKNFGWKEGHHHHHH,not soluble
13,MGSDKIHHHHHHLDFRLLRYFVAVAEELHLARAAERLGIEQSPVSRAMRDLESQLGVQLFDRSTRLTRLTWAGQVFLGECRRVMATVEQAVKSAKAAAQGYQGHLRIAICDSLAQPRIATLLARSREEEPELEIRVFELPFAQQLKMLHDDLLDIGFALSNAVHDGLVAEPVWTDPLSVIVPARHPLLAHVQVPLPEALKFPLVLCHPESGSGCRHQIQALLQDAGTPLKLVDEVTSLGVMLTLVGAGYGIGFAIASQVQTLQRPDISIRPLAGTPPMLSTYLLRRRGEPSEPMRRFIERVKDGAAPVDDEPVL,not soluble
14,MGYCVLHLEKAKGADSGMSAHIERTIVPKNIDPTRTHLNRELIMFPDGVCNRTLAIRHRLDTAGLKRKIGKNQVQAIRIVLSGTHEDMARMEDEGRLGEWCDDSVAWLRETYGAENLVSAVLHMDEETPHIHATVVPIVQGERRKQKKEENARRRYRTKAPAPRLCADEVMSRASLIRYQDTYAEHMEKYGLKRGVRGSLAKHLSTHEYYRSLITQGEDIQANIATLLSRETEASRIIAEAEQAKQELARIKAETKTVELKNSAARTATAALNGIGSLLGSNKMSRLESENRQLHGEVAELKESIEQMRTDMQKMRDSYTAEQLRVSEQHQREIGNFRRIIDKAKEWFPILAEFLRIERICRSVGLSERHTDELLQGKVLVVTGKLFSDEYKRSFTVEKVRLKVGREERDGKTVLDLLVDRVPIAAWFKEKWEKVSINRFRRNEMTIQKERGVRLLEHHHHHH,not soluble
15,MLFTIEQLELIKKLQHTGMSSDQLLKAFGELEVPEQLQNNNTIAAALYSPLLVQHLTTPKSETPVKLTVQTVPTPVKSEPQSSNCSSPFEHPICSNAPRPIRSQRTPMKEITTLDDPNELEEFMKQGEEACILDMKTFITQYSLRQTTVAMMTGVSQPYISKLLNGNHRELSLRCRKNIYCWYLNCRRHPNKLAAFLADPTTRLETNGDGELIPQRRERYVFRPILIRMLESFFTQTPFPDLPRRVEIANACNHVLKMDKKGVGLMPKEVVSPQVVSNWFANKRKELRRRSAEASAASTSSASSSASSTANHDSVSVSSMSPRDEETSSRNTTPETAISPSPAVSTFEVSRPSAIISATSSTTSPISIPATIIPSVSPSALELFAMAQQLGVQLPVPFPTLPTHFFPFQMAPFYGNPASILKSE,not soluble
16,MKLEIFSWWAGDEGPALEALIRLYKQKYPGVEVINATVTGGAGVNARAVLKTRMLGGDPPDTFQVHAGMELIGTWVVANRMEDLSALFRQEGWLQAFPKGLIDLISYKGGIWSVPVNIHRSNVMWYLPAKLKGWGVNPPRTWDKFLATCQTLKQKGLEAPLALGENWTQQHLWESVALAVLGPDDWNNLWNGKLKFTDPKAVRAWEVFGRVLDCANKDAAGLSWQQAVDRVVQGKAAFNIMGDWAAGYMTTTLKLKPGTDFAWAPSPGTQGVFMMLSDSFGLPKGAKNRQNAINWLRLVGSKEGQDTSNPLKGSIAARLDSDPSKYNAYGQSAMRDWRSNRIVGSLVHGAVAPESFMSQFGTVMEIFLQTRNPQAAANAAQAIADQVGLGRLGQHHHHHH,soluble
